Measured values published in paper PMC6497155 (ACS infectious diseases, 2018).

Assays:
[1] = Thermal stability of ClpP homotetradecamers; format: physicochemical
[2] = Storage stability and concentration limit of purified ClpP; format: physicochemical; details: purified protein in activity buffer
[3] = tested on: ClpX; details: 200 nM ClpP, 50 nM ClpX; relative to ClpX alone
[4] = tested on: ClpP2; experiment: Proteolytic activity of ClpP2 with DTT; format: biochemical, C. difficile; details: varying concentrations of DTT; incubation times exceeding 48 h

Row | Molecule | Tm ([1]; no ADEP, SYPRO Orange, activity buffer (25 mM HEPES, 100 mM KCl, 5 mM MgCl2, 1 mM DTT, 10% glycerol), 25 to 85 °C in 0.3 °C increments, triplicate, Boltzmann fit) | Effect of reduced conditions on thermal stability ([1]; reduced conditions) | Concentration above which less stability is exhibited [2] | Rate reduction of ClpX ATP hydrolysis [3] | Stimulation of ClpP2 proteolytic activity by DTT [4] | Concentration reached without any sign of precipitation [2]
1 | ClpP2: recombinant C. difficile ClpP2 (YP_001089868.1), homotetradecamer | 46.5 °C | no significant effect on the thermal stability | exceeding 12.5 mg/mL | ~ 7% | – | –
2 | O[C@@H](CS)[C@@H](O)CS (racemic) [dithiothreitol (DTT), dithiothreitol] | – | – | – | – | failed to stimulate proteolytic activity | –
3 | ClpP1: recombinant C. difficile ClpP1 (YP_001089821.1), homotetradecamer, prepared from ΔEcClpP E. coli unless otherwise noted | – | – | – | ~ 18% | – | ~ 60 mg/mL
